These results are taken from the supplement of paper PMC12042874.

± gives the uncertainty stated by the source.

The nature of this data set: amyloid nucleation score (Sup35N fusion, yeast selection) (log enrichment); library NNK2; higher = more nucleation; inactive = no reads after selection. An outline of the steps: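 Peptides of 20 random codons, each fused to Sup35N, were expressed in psi-negative yeast. Cells were induced with 100 μM copper sulfate for 24 hours and grown 7 days at 30°C on medium lacking adenine and uracil, and plasmid inserts before and after selection were Illumina-sequenced. Nucleation scores are DiMSum log enrichments of output over input reads, centred on the mode score of non-aggregating sequences, and sequences under 100 input reads were excluded.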
TDLIPRQKKITLWFIS gave an amyloid nucleation score of 0.159 ± 0.53.

Consider FTVLCYSSDIMEDFRFTHHN, for which the amyloid nucleation score was 4.12 ± 0.047. In the case of YVNNLGRFCLLYRPWGMVNS it was -0.196 ± 1.1. The value for GLRHGLCRSLLY was -0.642 ± 1.1.

As for YGPGFILSQMMNWLWYSCSS, the amyloid nucleation score was -0.765 ± 0.78.

SGPATLLPTLGYNGVIVFGN had an amyloid nucleation score of -0.444 ± 0.78. In the case of CIRAECVKLYL it was 6.11 ± 0.087; in that of CIYKS, -1.36 ± 0.75; in that of NDTCIRLWRWLRAQDSWLGN, 0.668 ± 0.37. The substance DCISRY showed an amyloid nucleation score of 1 ± 0.68.

TVSQFLFN displayed an amyloid nucleation score of -0.559 ± 0.76.

With HIIPEYRVFLLLFHDDGAGF, the amyloid nucleation score result was “inactive”. In the case of KMDFAFEA it was -0.202 ± 0.8; in that of CGFFVNEFTDLAWSYSLAVN, -0.117 ± 0.74; in that of QFHADSRQGFNVSEMLCWDG, -0.393 ± 0.49. The value for LCWCWKSWHNARRWTSWRMF was 0.13 ± 0.56; that for SLMLQ was 0.706 ± 0.81.

Substance TVHCGMQWWLVARRPRNEAQ showed an amyloid nucleation score of 1.25 ± 0.38. Turning to KFNPRPCSFKYLRV, the amyloid nucleation score result is “inactive”. On to VGGSDSLNFIAIGKTFCVQV, for which the amyloid nucleation score worked out at 0.186 ± 0.27. Regarding LNIAMVASNGRSVAVRSSGG, the amyloid nucleation score worked out at 0.113 ± 0.5. CTHWLDPDFVL had an amyloid nucleation score of -0.666 ± 0.79. In the case of GKGRMYES it was 0.738 ± 0.24.

SFYSVTSPRWH had an amyloid nucleation score of 1.92 ± 0.17. The value for CVILDWSVVCFMELVINSRS was 3.21 ± 0.065; that for MSISSALNKSSHTNSSMWNK was -0.277 ± 0.31; that for RRVGTC was -0.097 ± 0.74. Turning to ENSLVYI, the amyloid nucleation score entry was “inactive”. In the case of IEMHDINYNP it was -0.596 ± 0.29; in that of SENIRDFVLKWCYLDTHDRL, -0.261 ± 1.1. In the case of NAFLPG it was 4.52 ± 0.12. The value for RRSFTTADTCLLIS was -0.695 ± 0.54. Turning to YKWWCSW, the amyloid nucleation score was -0.62 ± 0.76. For HKIPLFYCSYTELGSSVERR, the amyloid nucleation score stood at 1.38 ± 0.15. The value for CCWLAMRVRFTMASKLPNFE was 3.34 ± 0.083; that for SDMDYLWLCIVRTVLNVIYR was -1.17 ± 1.1; that for MPLLRVVMTLRHKSLFKAEM was -0.272 ± 0.44.

Take RYQGLLTPVTAGRLFICIP: the amyloid nucleation score is -0.363 ± 1.1. Consider KNVLLKTLVHWLGRGMSAPG, for which the amyloid nucleation score came to 0.165 ± 1. In the case of LTHEKLKGLYCTA it was -0.404 ± 0.32; in that of TFSVSSYRNLP, -0.06 ± 0.79. VIRSLSFLSYIWVDKGVGVV: the amyloid nucleation score was -0.89 ± 0.53. For LQVMMYFWDEFVTKLEKVSG, the amyloid nucleation score was -0.809 ± 1.1.

The substance WVLYGASLCYPWVTSSKLRA displayed an amyloid nucleation score of 0.589 ± 0.42. The value for FKIDNGWYWCRTCGQNKGSS was -0.461 ± 0.56. Substance TLAYMNGVA displayed an amyloid nucleation score of -0.928 ± 0.63. The value for LVESGQGDQSAPNRTDWFNG was -0.437 ± 0.49.

For the substance PTRKSIYSLPRARSLIPQNT, the amyloid nucleation score was -1.26 ± 1.1.

In turn, FVKYNCIFNASLTCHK displayed an amyloid nucleation score of 7.686 ± 0.038. In the case of KTLWPGTWGGLITRVWWYTR it was 0.471 ± 0.18; in that of YLLFEWHYRHTYRCLVRVGA, -0.166 ± 0.76; in that of TPLLSWVTLFCCLGSPCLGT, 0.176 ± 0.76.

Substance LAHGG came in with an amyloid nucleation score of 3.16 ± 0.095. In the case of RILQSGLGV it was 0.336 ± 0.56.

KWITVYETVNCMSGWFIQDL: the amyloid nucleation score amounted to 6.622 ± 0.033. In the case of NSVLVLAWWVNANCGLREGG it was 5.454 ± 0.041; in that of GTAPSDQRTSSCR, 0.989 ± 0.23; in that of PGYNSFLWWAAME, -0.271 ± 0.34. LSKMWPPIHTTLIPLTDAER had an amyloid nucleation score of 4.84 ± 0.06.
